Data as given in IntAct's records for PubMed 31515488.

B1: Isoform 1 of Cyclin-dependent kinase 4 (Homo sapiens), P11802-1 (parent)
chain: MATSRYEPVAEIGVGAYGTVYKARDPHSGHFVALKSVRVPNGGGGGGGLPISTVREVALLRRLEAFEHPNVVRLMDVCATSRTDREIKVTLVFEHVDQDLRTYLDKAPPPGLPAETIKDLMRQFLRGLDFLHANCIVHRDLKPENILVTSGGTVKLADFGLARIYSYQMALTPVVVTLWYRAPEVLLQSTYATPVDMWSVGCIFAEMFRRKPLFCGNSEADQLGKIFDLIGLPPEDDWPRDVSLPRGAFPPRGPRPVQSVVPEMEESGAQLLLEMLTFNPHKRISAFRALQHSYLHKDEGNPE

Key:
[1] = variants of: B1; conditions: with ccnd1_human CCND1, P24385
ccnd1_human CCND1, P24385, sequence (P24385 whole entry): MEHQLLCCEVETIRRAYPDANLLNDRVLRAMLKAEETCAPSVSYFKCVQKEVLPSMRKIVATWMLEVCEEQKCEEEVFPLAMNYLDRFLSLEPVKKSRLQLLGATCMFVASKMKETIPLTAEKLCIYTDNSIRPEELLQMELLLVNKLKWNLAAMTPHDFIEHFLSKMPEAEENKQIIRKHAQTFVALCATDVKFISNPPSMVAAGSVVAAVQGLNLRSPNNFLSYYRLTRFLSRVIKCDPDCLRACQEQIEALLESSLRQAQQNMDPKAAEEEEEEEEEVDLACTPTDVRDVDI

[2] = variants of: B1; conditions: with ccnd2_human CCND2, P30279
ccnd2_human CCND2, P30279, sequence (P30279 whole entry): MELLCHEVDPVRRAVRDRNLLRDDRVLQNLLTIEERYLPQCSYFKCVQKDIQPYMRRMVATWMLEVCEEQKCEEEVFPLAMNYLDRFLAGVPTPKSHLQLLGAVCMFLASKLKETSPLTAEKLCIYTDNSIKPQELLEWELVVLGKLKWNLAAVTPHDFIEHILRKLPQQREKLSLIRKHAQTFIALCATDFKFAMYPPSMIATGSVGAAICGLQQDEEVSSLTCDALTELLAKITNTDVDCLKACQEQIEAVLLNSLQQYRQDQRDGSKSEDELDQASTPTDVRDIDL

[3] = variants of: B1; conditions: with cdn2c_human CDKN2C
[4] = variants of: B1; conditions: with ccnd3_human CCND3, P30281
ccnd3_human CCND3, P30281, sequence (P30281 whole entry): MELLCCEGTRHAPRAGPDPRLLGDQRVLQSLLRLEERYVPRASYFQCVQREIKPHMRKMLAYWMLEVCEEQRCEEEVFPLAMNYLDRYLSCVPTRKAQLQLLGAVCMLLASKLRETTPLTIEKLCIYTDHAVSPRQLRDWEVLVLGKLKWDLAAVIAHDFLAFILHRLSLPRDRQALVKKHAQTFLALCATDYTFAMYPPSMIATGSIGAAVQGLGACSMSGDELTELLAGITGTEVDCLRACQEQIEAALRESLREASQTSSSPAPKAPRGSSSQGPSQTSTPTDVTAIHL

[5] = variants of: B1; conditions: with cdn2b_human CDKN2B
[6] = variants of: B1; conditions: with ccnd3_human CCND3, P30281; remark: listed apart in the source
[7] = variants of: B1; conditions: with cdn2c_human CDKN2C; remark: listed apart in the source

Measured: effect of a mutation on the interaction

MATSRYEPVAEIGVGAYGTVYKARDPHSGHFVALKSVRVPNGGGGGGGLPISTVREVALLRRLEAFEHPNVVRLMDVCATSRTDREIKVTLVFEHVDQDLRTYLDKAPPPGLPAETIKDLMRQFLRGLDFLHANCIVHRDLKPENILVTSGGTVKLADFGLARIYSYQMALTPVVVTLWYRAPEVLLQSTYATPVDMWSVGCIFAEMFRRKPLFCGNSEADQLGKIFDLIGLPPEDDWPRDVSLPRGAFPPRGPCPVQSVVPEMEESGAQLLLEMLTFNPHKRISAFRALQHSYLHKDEGNPE [R255C]
with no effect: [1] | [2] | [3] | [4]

MATSRYEPVAEIGVGAYGTVYKARDPHSGHFVALKSVRVPNGEGGGGGLPISTVREVALLRRLEAFEHPNVVRLMDVCATSRTDREIKVTLVFEHVDQDLRTYLDKAPPPGLPAETIKDLMRQFLRGLDFLHANCIVHRDLKPENILVTSGGTVKLADFGLARIYSYQMALTPVVVTLWYRAPEVLLQSTYATPVDMWSVGCIFAEMFRRKPLFCGNSEADQLGKIFDLIGLPPEDDWPRDVSLPRGAFPPRGPRPVQSVVPEMEESGAQLLLEMLTFNPHKRISAFRALQHSYLHKDEGNPE [G43E]
with no effect: [1] | [2] | [3] | [4]

MATSRYEPVAEIGVGAYGTVYRARDPHSGHFVALKSVRVPNGGGGGGGLPISTVREVALLRRLEAFEHPNVVRLMDVCATSRTDREIKVTLVFEHVDQDLRTYLDKAPPPGLPAETIKDLMRQFLRGLDFLHANCIVHRDLKPENILVTSGGTVKLADFGLARIYSYQMALTPVVVTLWYRAPEVLLQSTYATPVDMWSVGCIFAEMFRRKPLFCGNSEADQLGKIFDLIGLPPEDDWPRDVSLPRGAFPPRGPRPVQSVVPEMEESGAQLLLEMLTFNPHKRISAFRALQHSYLHKDEGNPE [K22R]
with no effect: [1] | [2] | [3] | [4]

MATSRYEPVAEIGVGAYGTVYKARDPHSGHFVALKSVRVPNGGGGGGGLPISTVREVALLRRLEAFEHPNVVRLMDVCATSRTDREIKVTLVFEHVDQDLRTYLDKAPPPGLPAETIKDLMRQFLRGLDFLHANCIVHRDLKPENILVTSGGTVKLADFGLARIYSYQMALTPVVVTLWYRAPEVLLQSTYATPVDMWSVGCIFAEMFRRKPLFCGNSEADQLGKIFDLIGLPPEDDWPRDVSLPRGAFPPRGPRPVQSVVPEMEEPGAQLLLEMLTFNPHKRISAFRALQHSYLHKDEGNPE [S267P]
with no effect: [1] | [2] | [3] | [4]

MATSRYEPVAEIGVGAYGTVYKARDPHSGHFVALKSVRVPNGGGGGGGLPISTVREVALLRRLEAFEHPNVVRLMDVCATSRTDREIKVTLVFEHVDQDLRTYLDKAPPPGLPAETIKDLMRQFLRGLDFLHANCIVHRDLKPENILVTSGGTVKLADFGLARIYSYQMALTPVVVTLWYRAPEVLLQSTYATPVDMWSVGCIFAEMFCRKPLFCGNSEADQLGKIFDLIGLPPEDDWPRDVSLPRGAFPPRGPRPVQSVVPEMEESGAQLLLEMLTFNPHKRISAFRALQHSYLHKDEGNPE [R209C]
with no effect: [5] | [6] | [7]
